B1: Sad1 (residues 88–101) [S. pombe] / Bqt4_(2–140), N-terminal domain of Bqt4 [S. pombe] (parent complex)
chain 1: SDNEEFENVVKNGH
chain 2: TENEKSRSLPAERNPLYKDDTLDHTPLIPKCRAQVIEFPDGPATFVRLKCTNPESKVPHFLMRMAKDSSISATSMFRSAFPKATQEEEDLEMRWIRDNLNPIEDKRVAGLWVPPADALALAKDYSMTPFINALLEASST
B2: Rap1_(479–527) [S. pombe] / Bqt4_(2–140), N-terminal domain of Bqt4 [S. pombe] (parent complex)
chain 1: EIPLLSDYSDSENISEKSSDDEEAFEKQVTSSYSSPIKVKSQGKSSKGS
chain 2: B1 chain 2
B3: Lem2_(261–279) [S. pombe] / Bqt4_(2–140), N-terminal domain of Bqt4 [S. pombe] (parent complex)
chain 1: SAEEDDELFQNYVLQQTRK
chain 2: B1 chain 2

In one assay the parent is B1. Description: ITC; parent: 3.7e+03 nM. (In general: In ITC the heat of successive injections is recorded.)
One may read the Kd as the equilibrium constant for the complex coming apart. As to chain 2 TENEKSRSLPAERNPLYKDDTLDHTPLIPKCRAQVIEFPDGPATFVELKCTNPESKVPHFLMRMAKDSSISATSMFRSAFPKATQEEEDLEMRWIRDNLNPIEDKRVAGLWVPPADALALAKDYSMTPFINALLEASST [chain 2 R47E], the Kd turned out to be 262 µM.

In a further assay the parent is B2. Description: ITC; parent: 1.14e+04 nM.
On to chain 2 TENEKSRSLPAERNPLYKDDTLDHTPLIPKCRAQVIEFPDGPATFVRLKCTNPESKVPHALMRMAKDSSISATSMFRSAFPKATQEEEDLEMRWIRDNLNPIEDKRVAGLWVPPADALALAKDYSMTPFINALLEASST [chain 2 F60A], for which the equilibrium dissociation constant (Kd) is 909 µM.

In a further assay the parent is B2. Description: ITC; parent: 1.14e+04 nM. The source holds these as a separate data set.
As for chain 2 TENEKSRSLPAERNPLYKDDTLDHTPLIPKCAAQVIEFPDGPATFVRLKCTNPESKVPHFLMRMAKDSSISATSMFRSAFPKATQEEEDLEMRWIRDNLNPIEDKRVAGLWVPPADALALAKDYSMTPFINALLEASST [chain 2 R32A], the dissociation constant (Kd) amounted to 12.3 µM.

chain 2 TENEKSRSLPAERNPLYKDDTLDHTPLIPKCRAQVIEFPDGPATFVRLKCTNPESKVPHFLMRMAKDSSISATSMFRSAFPKATQEEERLEMRWIRDNLNPIEDKRVAGLWVPPADALALAKDYSMTPFINALLEASST [chain 2 D89R]: the Kd came out at 14.4 µM.

Variants of B2 are the subject of another assay. Description: ITC; parent: 1.14e+04 nM. This is another data set of the same source.
For chain 1 EIPLLSDYSDSENISEKSSDDEEAFEKQVTSSYASPIKVKSQGKSSKGS [chain 1 S34A], the Kd came out at 7.1 µM.

As for chain 1 EIPLLSDYSDSENISEKSSDDEEAFEKQVTSSYESPIKVKSQGKSSKGS [chain 1 S34E], the dissociation constant (Kd) was found to be 27.2 µM.

For the variant chain 1 EIPLLSDYSDSENISEKEEDDEEAFEKQVTSSYSSPIKVKSQGKSSKGS [chain 1 S18E, chain 1 S19E], the Kd turned out to be 0.9 µM.

As to chain 1 EIPLLSDYSDSENISEKSSDDEEAFEKQVTSSYAAPIKVKSQGKSSKGS [chain 1 S34A, chain 1 S35A], the dissociation constant (Kd) is 7.3 µM.

Regarding chain 1 EIPLLSDYSDSENISEKESDDEEAFEKQVTSSYSSPIKVKSQGKSSKGS [chain 1 S18E], the equilibrium dissociation constant (Kd) worked out at 2.4 µM.

On to chain 1 EIPLLSDYSDSENISEKASDDEEAFEKQVTSSYSSPIKVKSQGKSSKGS [chain 1 S18A], for which the Kd was found to be 10.6 µM.

On to chain 1 EIPLLSDYSDSENISEKAADDEEAFEKQVTSSYSSPIKVKSQGKSSKGS [chain 1 S18A, chain 1 S19A], for which the Kd was found to be 8 µM.

For chain 1 EIPLLSDYSDSENISEKSSDDEEAFEKQVTSSYSAPIKVKSQGKSSKGS [chain 1 S35A], the equilibrium dissociation constant (Kd) was found to be 7.9 µM.

For the variant chain 1 EIPLLSDYSDSENISEKSSDDEEAFEKQVTSSYSEPIKVKSQGKSSKGS [chain 1 S35E], the Kd was found to be 57.8 µM.

Regarding chain 1 EIPLLSDYSDSENISEKSADDEEAFEKQVTSSYSSPIKVKSQGKSSKGS [chain 1 S19A], the Kd stood at 9.5 µM.

As for chain 1 EIPLLSDYSDSENISEKSEDDEEAFEKQVTSSYSSPIKVKSQGKSSKGS [chain 1 S19E], the dissociation constant (Kd) was found to be 2.6 µM.

For the variant chain 1 EIPLLSDYSDSENISEKSSDDEEAFEKQVTSSYEEPIKVKSQGKSSKGS [chain 1 S34E, chain 1 S35E], the Kd was determined as 115 µM.

The variants in another assay derive from B2. The experiment in a line: ITC; parent: 1.14e+04 nM. The source holds these as a separate data set.
For the variant chain 1 EIPLLSDYSDSENISEKSSDAAEAFEKQVTSSYSSPIKVKSQGKSSKGS [chain 1 D21A, chain 1 E22A], the dissociation constant (Kd) is 862 µM.

On to chain 1 EIPLLSDYSDSENISEKSSDDEEAFEKQATSSYSSPIKVKSQGKSSKGS [chain 1 V29A], for which the dissociation constant Kd amounted to 138 µM.

Take chain 1 EIPLLSDYSDSENISEKSSDDEEAAEKQVTSSYSSPIKVKSQGKSSKGS [chain 1 F25A]: the Kd was 106 µM.

In another assay the parent is B3. The experiment in a line: ITC; parent: 530 nM.
For the variant chain 2 TENEKSRSLPAERNPLYKDDTLDHTPLIPKCRAQVIEFPDGPATFVRLKCTNPESKVPHALMRMAKDSSISATSMFRSAFPKATQEEEDLEMRWIRDNLNPIEDKRVAGLWVPPADALALAKDYSMTPFINALLEASST [chain 2 F60A], the Kd is 46 µM.

As for chain 2 TENEKSRSLPAERNPLYKDDTLDHTPLIPKCRAQVIEFPDGPATFVELKCTNPESKVPHFLMRMAKDSSISATSMFRSAFPKATQEEEDLEMRWIRDNLNPIEDKRVAGLWVPPADALALAKDYSMTPFINALLEASST [chain 2 R47E], the Kd came to 3.2 µM.

The record behind these values is paper PMC6379675, “Structural insights into chromosome attachment to the nuclear envelope by an inner nuclear membrane protein Bqt4 in fission yeast” (Nucleic Acids Research, 2018).
